According to article PMC4838878, “Super-complexes of adhesion GPCRs and neural guidance receptors” (Nature Communications, 2016):
Several values for one entry are separate records, joined by “and”; a condition that tells them apart may be missing. Equal entries are not always repeated.

B1: mouse FLRT2 LRR domain (FLRT2^LRR) (domain or fragment, UniProt Q8BLU0 35-362, looked up)
chain: ACPSVCRCDRNFVYCNERSLTSVPLGIPEGVTVLYLHNNQINNAGFPAELHNVQSVHTVYLYGNQLDEFPMNLPKNVRVLHLQENNIQTISRAALAQLLKLEELHLDDNSISTVGVEDGAFREAISLKLLFLSKNHLSSVPVGLPVDLQELRVDENRIAVISDMAFQNLTSLERLIVDGNLLTNKGIAEGTFSHLTKLKEFSIVRNSLSHPPPDLPGTHLIRLYLQDNQINHIPLTAFANLRKLERLDISNNQLRMLTQGVFDHLSNLKQLTARNNPWFCDCSIKWVTEWLKYIPSSLNVRGFMCQGPEQVRGMAVRELNMNLLSCPT
notes: FLRT2, mouse, residues 35-362 (leucine-rich repeat domain); pHLSec vector family; treated with endoglycosidase F1 before crystallisation
B2: mouse Latrophilin3 Lec+Olf (Lphn3^Lec–Olf) (domain or fragment, UniProt Q80TS3-3 92-463, looked up)
chain: PIPMAVVRRELSCESYPIELRCPGTDVIMIESANYGRTDDKICDSDPAQMENIRCYLPDAYKIMSQRCNNRTQCAVVAGPDVFPDPCPGTYKYLEVQYECVPYKVEQKVFLCPGLLKGVYQSEHLFESDHQSGAWCKDPLQASDKIYYMPWTPYRTDTLTEYSSKDDFIAGRPTTTYKLPHRVDGTGFVVYDGALFFNKERTRNIVKFDLRTRIKSGEAIIANANYHDTSPYRWGGKSDIDLAVDENGLWVIYATEQNNGKIVISQLNPYTLRIEGTWDTAYDKRSASNAFMICGILYVVKSVYEDDDNEATGNKIDYIYNTDQSKDSLVDVPFPNSYQYIAAVDYNPRDNLLYVWNNYHVVKYSLDFGPLD
notes: Latrophilin3 (Lphn3, ADGRL3), mouse, residues 92-463 (lectin and olfactomedin-like domains); pHLSec vector family; treated with endoglycosidase F1 before crystallisation; Two copies (Lphn3A, Lphn3B) stand in each 1:1:2 tetramer; also called Lphn3A^Lec–Olf; Lphn3B^Lec–Olf
B3: Lphn3^Lec–Olf DDD charge-reversal mutant (D397R, D398R and D399R) (domain or fragment, mouse, UniProt Q80TS3-3 92-463, looked up)
chain: PIPMAVVRRELSCESYPIELRCPGTDVIMIESANYGRTDDKICDSDPAQMENIRCYLPDAYKIMSQRCNNRTQCAVVAGPDVFPDPCPGTYKYLEVQYECVPYKVEQKVFLCPGLLKGVYQSEHLFESDHQSGAWCKDPLQASDKIYYMPWTPYRTDTLTEYSSKDDFIAGRPTTTYKLPHRVDGTGFVVYDGALFFNKERTRNIVKFDLRTRIKSGEAIIANANYHDTSPYRWGGKSDIDLAVDENGLWVIYATEQNNGKIVISQLNPYTLRIEGTWDTAYDKRSASNAFMICGILYVVKSVYERRRNEATGNKIDYIYNTDQSKDSLVDVPFPNSYQYIAAVDYNPRDNLLYVWNNYHVVKYSLDFGPLD
notes: Latrophilin3, mouse, residues 92-463 (Lec and Olf domains) with three substitutions in the DDD loop
B4: rat Unc5D ectodomain (Unc5D^ecto), biotinylated at a C-terminal Avitag (domain or fragment)
chain: not shown
modifications: biotin on the C-terminal Avitag (enzymatic)
notes: signal peptide in the construct; Unc5D, rat, residues 1-382 (all extracellular domains); The form held on the streptavidin-coated CM5 chip in SPR; not shown: Avitag, C-terminal, kept

Tests used:
[1] = target: T1, rat Unc5D ectodomain (Unc5D^ecto) (rat, UniProt F1LW30 31-382); assay: SEC-MALS; proteins mixed (Lphn3^Lec–Olf:FLRT:Unc5 2:1:1) and concentrated; Superdex 200 10/30, 10 mM Tris-HCl pH 7.5, 150 mM NaCl; conditions: both partners purified
T1 construct: signal peptide in the construct; Unc5D, rat, residues 1-382 (all extracellular domains); The form used in native MS and SEC-MALS

[2] = target: B2; assay: crystal structure; Lphn3^Lec–Olf, FLRT2^LRR and Unc5D^Ig deglycosylated, mixed 1:1:1, SEC; crystals at 18 °C, 0.1 M sodium cacodylate pH 6.5; 6 Å (PDB 5ftu); conditions: both partners purified
[3] = target: B3; assay: native MS; purified proteins mixed (FLRT2^LRR:Unc5D:Lphn3^Lec–Olf 1:1:2), 10–15 μM, 0.2 M ammonium acetate pH 7.5; Q-ToF; tandem MS of the tetramer peak at 150 V collision energy; conditions: both partners purified
[4] = target: T2, Lphn3^Lec–Olf DDD mutant (D397N+D399T, artificial N-linked glycosylation site at position 397) (mouse, UniProt Q80TS3-3 92-463, D397N | D399T, artificial N-linked glycan at position 397); assay: as above; conditions: both partners purified
T2 construct: Latrophilin3, mouse, residues 92-463 (Lec and Olf domains) with two substitutions in the DDD loop
T2 sequence (looked up): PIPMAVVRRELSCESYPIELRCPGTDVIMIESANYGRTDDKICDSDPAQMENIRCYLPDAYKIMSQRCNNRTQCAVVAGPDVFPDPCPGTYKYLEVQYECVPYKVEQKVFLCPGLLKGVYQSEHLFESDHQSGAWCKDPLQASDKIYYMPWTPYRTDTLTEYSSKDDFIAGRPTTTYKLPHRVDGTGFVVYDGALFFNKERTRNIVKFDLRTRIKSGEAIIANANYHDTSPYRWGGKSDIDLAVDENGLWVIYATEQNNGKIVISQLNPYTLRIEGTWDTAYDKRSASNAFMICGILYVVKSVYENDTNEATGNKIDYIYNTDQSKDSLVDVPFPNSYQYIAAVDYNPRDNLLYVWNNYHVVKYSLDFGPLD

[5] = target: B4; assay: SPR; Unc5D^ecto biotinylated at a C-terminal Avitag and coupled to a streptavidin-coated CM5 chip; FLRT2^LRR or FLRT2^LRR+Lphn3^Lec–Olf (1:2 molar ratio) injected; equilibrium binding, 25 °C, PBS+0.005% polysorbate 20 pH 7.5; apparent Kd, 1:1 and 1:(1:1) models, called indicative only; conditions: both partners purified
[6] = target: the molecule itself; assay: crystal structure; Lphn3^Lec–Olf, FLRT2^LRR and Unc5D^Ig deglycosylated, mixed 1:1:1, SEC; crystals at 18 °C, 0.1 M sodium cacodylate pH 6.5; 6 Å (PDB 5ftu)
[7] = target: B1; assay: native MS; purified proteins mixed (FLRT2^LRR:Unc5D:Lphn3^Lec–Olf 1:1:2), 10–15 μM, 0.2 M ammonium acetate pH 7.5; Q-ToF; tandem MS of the tetramer peak at 150 V collision energy; conditions: both partners purified
[8] = target: the molecule itself; assay: as above
[9] = target: T3, FLRT2^LRR+Lphn3^Lec–Olf DDD mutant (mouse, UniProt Q8BLU0 35-362; Q80TS3-3 92-463, D397N | D399T, artificial N-linked glycan at position 397); assay: SPR; Unc5D^ecto biotinylated at a C-terminal Avitag and coupled to a streptavidin-coated CM5 chip; FLRT2^LRR or FLRT2^LRR+Lphn3^Lec–Olf (1:2 molar ratio) injected; equilibrium binding, 25 °C, PBS+0.005% polysorbate 20 pH 7.5; apparent Kd, 1:1 and 1:(1:1) models, called indicative only; conditions: both partners purified
T3 construct: FLRT2, mouse, residues 35-362 (leucine-rich repeat domain); as m2; Latrophilin3, mouse, residues 92-463 with D397N+D399T; as m9
T3 sequence (looked up) 1: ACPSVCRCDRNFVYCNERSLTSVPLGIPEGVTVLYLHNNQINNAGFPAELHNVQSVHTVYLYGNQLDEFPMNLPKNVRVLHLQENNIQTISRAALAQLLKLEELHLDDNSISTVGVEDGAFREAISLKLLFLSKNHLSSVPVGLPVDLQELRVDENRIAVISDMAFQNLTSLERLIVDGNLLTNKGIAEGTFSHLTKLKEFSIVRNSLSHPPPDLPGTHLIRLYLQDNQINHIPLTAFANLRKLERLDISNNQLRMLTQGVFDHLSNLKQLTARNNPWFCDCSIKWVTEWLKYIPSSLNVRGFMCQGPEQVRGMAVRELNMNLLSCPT
T3 sequence (looked up) 2: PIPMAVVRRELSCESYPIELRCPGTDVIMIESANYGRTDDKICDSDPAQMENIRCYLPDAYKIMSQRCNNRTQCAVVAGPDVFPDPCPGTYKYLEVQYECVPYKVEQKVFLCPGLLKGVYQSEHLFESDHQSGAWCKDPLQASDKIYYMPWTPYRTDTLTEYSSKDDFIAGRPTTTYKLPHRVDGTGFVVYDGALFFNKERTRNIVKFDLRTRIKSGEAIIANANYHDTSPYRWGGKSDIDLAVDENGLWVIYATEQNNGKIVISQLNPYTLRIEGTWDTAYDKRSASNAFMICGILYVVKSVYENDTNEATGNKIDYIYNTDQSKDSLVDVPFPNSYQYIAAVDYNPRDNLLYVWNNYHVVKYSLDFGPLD

[10] = target: T4, FLRT2^LRR+Lphn3^Lec–Olf (mixed in a 1:2 molar ratio) (mouse, UniProt Q8BLU0 35-362; Q80TS3-3 92-463); assay: as above; conditions: both partners purified
T4 construct: FLRT2, mouse, residues 35-362 (leucine-rich repeat domain); as m2; Latrophilin3, mouse, residues 92-463 (Lec and Olf domains); as m1; Analyte mixture of the SPR experiment; by SEC-MALS the two proteins alone form a 1:1 complex; also called FLRT2^LRR+wild-type Lphn3^Lec–Olf
T4 sequence (looked up) 1: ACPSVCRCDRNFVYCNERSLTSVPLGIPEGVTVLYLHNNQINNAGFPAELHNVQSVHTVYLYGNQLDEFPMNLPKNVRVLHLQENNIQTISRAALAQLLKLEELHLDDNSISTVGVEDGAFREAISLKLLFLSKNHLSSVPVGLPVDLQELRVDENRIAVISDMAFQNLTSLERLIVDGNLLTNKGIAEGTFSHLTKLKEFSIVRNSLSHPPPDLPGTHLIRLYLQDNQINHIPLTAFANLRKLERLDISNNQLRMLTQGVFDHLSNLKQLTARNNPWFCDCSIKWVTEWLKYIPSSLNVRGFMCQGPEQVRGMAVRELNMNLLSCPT
T4 sequence (looked up) 2: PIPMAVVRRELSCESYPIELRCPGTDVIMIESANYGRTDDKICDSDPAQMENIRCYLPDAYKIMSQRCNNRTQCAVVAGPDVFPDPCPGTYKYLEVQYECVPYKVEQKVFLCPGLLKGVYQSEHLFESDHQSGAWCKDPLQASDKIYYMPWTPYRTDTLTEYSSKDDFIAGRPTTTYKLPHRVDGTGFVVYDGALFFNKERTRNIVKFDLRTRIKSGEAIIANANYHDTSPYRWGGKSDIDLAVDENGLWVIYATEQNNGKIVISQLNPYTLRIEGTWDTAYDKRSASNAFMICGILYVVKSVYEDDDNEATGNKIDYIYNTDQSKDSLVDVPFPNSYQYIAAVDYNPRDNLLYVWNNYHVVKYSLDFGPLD

[11] = target: B1; assay: crystal structure; Lphn3^Lec–Olf, FLRT2^LRR and Unc5D^Ig deglycosylated, mixed 1:1:1, SEC; crystals at 18 °C, 0.1 M sodium cacodylate pH 6.5; 6 Å (PDB 5ftu); conditions: both partners purified
[12] = target: B1; assay: crystal structure; Lphn3^Lec–Olf, FLRT2^LRR and Unc5D^IgIgTsp deglycosylated, mixed 2:1:1; crystals at 18 °C; 3.4 Å (PDB 5ftt); conditions: both partners purified

T1 sequence (F1LW30 31-382): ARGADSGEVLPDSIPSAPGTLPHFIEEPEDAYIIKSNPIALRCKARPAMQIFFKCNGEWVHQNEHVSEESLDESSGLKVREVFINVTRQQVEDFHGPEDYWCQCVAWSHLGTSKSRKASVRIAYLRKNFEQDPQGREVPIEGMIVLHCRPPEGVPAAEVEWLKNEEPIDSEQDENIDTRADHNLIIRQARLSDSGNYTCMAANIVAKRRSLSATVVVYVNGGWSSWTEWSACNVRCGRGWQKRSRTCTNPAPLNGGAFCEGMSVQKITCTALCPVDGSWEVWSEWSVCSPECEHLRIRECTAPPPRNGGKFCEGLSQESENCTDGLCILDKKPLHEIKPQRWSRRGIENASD

In the case of B1, the “stoichiometry N” value [1] is reported as 1, the binding result [2] is reported as “binds” and the binding result [3] is reported as “binds”. The binding result [4] was “binds” and the Kd [5] was 0.46 µM.

For B2, the binding result [6] was “binds” and the “stoichiometry N” value [7] was 1 and 2.

B3: binds [8].

For B4, the binding result [9] was “binds” and the Kd [10] was 0.094 µM.

B5: rat Unc5D Ig domain 1 (Unc5D^Ig) (domain or fragment)
chain: not shown
notes: signal peptide in the construct; Unc5D, rat, residues 1-161 (Ig domain 1); Treated with endoglycosidase F1 before crystallisation
B5: binds [11].

B6: rat Unc5D two Ig and TSP1 domains (Unc5D^IgIgTSP) (domain or fragment)
chain: not shown
notes: signal peptide in the construct; Unc5D, rat, residues 1-307 (Ig1, Ig2 and TSP1 domains); Deglycosylated before crystallisation
B6: binds [12].
